Experimental data from the DeepSol protein solubility set.

assay: soluble on expression in E. coli; label from the status in PepcDB or PDB records

Row | Sequence | soluble on expression in E. coli
1 | MGSDKIHHHHHHMMWEQFKKEKLRGYLEAKNQRKVDFDIVELLDLINSFDDFVTLSSCSGRIAVVDLEKPGDKASSLFLGKWHEGVEVSEVAEAALRSRKVAWLIQYPPIIHVACRNIGAAKLLMNAANTAGFRRSGVISLSNYVVEIASLERIELPVAEKGLMLVDDAYLSYVVRWANEKLLKGKEKLGRLQEALESLQRENAYCSD | soluble
2 | MSLPDHSLFRLRILPWCIALAMSGSYSSVWAEDDIQFDSRFLELKGDTKIDLKRFSSQGYVEPGKYNLQVQLNKQPLAEEYDIYWYAGEDDVSKSYACLTPELVAQFGLKEDVAKNLQWSHDGKCLKPGQLEGVEIKADLSQSALVISLPQAYLEYTWPDWDPPSRWDDGISGIIADYSITAQTRHEENGGDDSNEISGNGTVGVNLGPWRMRADWQTNYQHTRSNDDDDEFGGDDTQKKWEWSRYYAWRALPSLKAKLALGEDYLNSDIFDGFNYVGGSVSTDDQMLPPNLRGYAPDISGVAHTTAKVTVSQMGRVIYETQVPAGPFRIQDLGDSVSGTLHIRIEEQNGQVQEYDISTASMPYLTRPGQVRYKIMMGRPQEWGHHVEGGFFSGAEASWGIANGWSLYGGALGDENYQSAALGVGRDLSTFGAVAFDVTHSHTKLDKDTAYGKGSLDGNSFRVSYSKDFDQLNSRVTFAGYRFSEENFMTMSEYLDASDSEMVRTGNDKEMYTATYNQNFRDAGVSVYLNYTRHTYWDREEQTNYNIMLSHYFNMGSIRNMSVSLTGYRYEYDNRADKGMEGHHHHHH | not soluble
3 | MGSDKIHHHHHHDDNSYSLGDIWIAVATVVPEGNNVYYLRLDDGDKLWPAATNYPNYQPKPNQRALVNFTILADSTQSNLGGFSHYIKVNAIHNILTKSIAKNEGAANDSIYGTDPVSIYNNNMWIGDGYLNIYFETLWGGKTAHFINLIQPDAENDPYTLEFRHNAYDDPQYTIGAGRVAFNLSSLPDTKGETVDLVVNYWTSEGKQAYKLKYNSDKTKMEDTSQGYTNDSISNITDMK | not soluble
4 | MAVGAPFLYRYSLYNCAYVILNGKVLGIVPKSYIPNYSEFYEKRWFTEGFNIKGLNVDLDFQKEVPFGTDLIFSFKNLKVGFEICEDLWVTIPPSSNLALMGANLICNLSASNELVSKSSYRKSLVQNQSARTMCSYIYSSAGVHESTTDLLFSGHMIIAENGTIIKENNRFKRENDLLTGIVDLFKLDAERIKNISFRNSTFNENNEPRFIPFNLENTEIKNFDREIDKHPFLPKSQYAMEARCEEILNIQAAALAKRLEHTNLKKAVIGISGGLDSTLALLVVVKTFDMLNIPRENIITITMPGFGTTDRTYNNAVTLCKELHCDFREINIVNAALQHFEDIGHDKDIHDVTYENVQARERTQILMDLANKEGGLLIGTGDLSELALGWCTYNGDHMSMYSVNCSIPKTLVRFLVNYFANHEISNDAKEALLDILDTPVSPELEHHHHHH | soluble
5 | MPEVKTEKPHLLDMGKPQLRMVDLNLLTVFDAVMQEQNITRAAHTLGMSQPAVSNAVARLKVMFNDELFVRYGRGIQPTARAFQLFGSVRQALQLVQNELPGSGFEPTSSERVFNLCVCSPLDNILTSQIYNRVEKIAPNIHVVFKASLNQNTEHQLRYQETEFVISYEEFRRPEFTSVPLFKDEMVLVASRKHPRISGPLLEGDVYNEQHAVVSLDRYASFSQPWYDTPDKQSSVAYQGMALISVLNVVSQTHLVAIAPRWLAEEFAESLDLQILPLPLKLNSRTCYLSWHEAAGRDKGHQWMEDLLVSVCKR | not soluble
6 | MRILLIHSDYIEYEVKDKAIKNPEPISEEEKKGRMDEVLVAFISVEKVDETNPEEVVSKAVEEIINVASQVKAENVFVYPFAHLSSELAKPSVAQEILRKVYEGLKEKGYNVGKAPFGYYKAFKISCKGHPLAELSRTIIPEGAKEEEVPEALKKEETELVSYWYILTPEGELIEVDKFDFTGYENLRKFANYEISKSRIAEKEPPHVKLMLEHELVDYEPGSDPGNLRYYPKGRLIKSLLEQYVTEKVIEYGAMEVETPVMYDFEHPALEKYLNRFPARQYIVLSGDKKYFLRFAACFGQFLISKDAVISYRHLPLRMYELTRYSFRREKRGELSGLRRLRAFTMPDMHTLAKDLEQAKDEFKKQFKLSMEVLKGVGLTPEDYEVAIRFTEDFWKENRDFIVELVKIIGKPVLIEMWKQRFFYFILKFEFNFVDNLDKAAALSTVQIDVENAERFGIKYYDENGEEKYPLILHCSPSGAIERVMYAILEKQAKLMQEGKKPMLPLWLSPIQVRVIPVSEEYLDYALYIAGKLEGARIRVDVDDEDERLNKKIRRAEKEWIPYIVVVGAKEKESGTITVRRREDGKQYETRLEELIKEIKEKVEGFPYKPRPLPLLLSKRPKFRG | soluble
7 | MSCINLPTVLPGSPSKTRGQIQVILGPMFSGKSTELMRRVRRFQIAQYKCLVIKYAKDTRYSSSFCTHDRNTMEALPACLLRDVAQEALGVAVIGIDEGQFFPDIVEFCEAMANAGKTVIVAALDGTFQRKPFGAILNLVPLAESVVKLTAVCMECFREAAYTKRLGTEKEVEVIGGADKYHSVCRLCYFKKASGQPAGPDNKENCPVPGKPGEAVAARKLFAPQQILQCSPAN | not soluble
8 | SKTENEEDVKPPESCHAMQLLFKSLEASERAKVEEELKKTKENEFTQRNEHHALRDITHGKVNNYSFGTRQARKLFPHYHPPTWLGNLYLPLRGMPHTGPGCYAAATDWNGLAYNLSKVPTSTKGYAIGARTAVRFKPISKDVTPYPGMYQKVDTLSEKHKKSFAPFNILMPRFRSAAKGDSYPGPGTYNPEMKSVPKVTWPMKFGSPDWSQVPCLEKRTLKAELSADKDFRKHRSRVAYFSLYYQ | soluble
9 | METEEWFFKGISRKDAERQLLAPGNMLGSFMIRDSETTKGSYSLSVRDYDPRQGDTVKHYKIRTLDNGGFYISPRSTFSTLQELVDHYKKGNDGLCQKLSVPCMSSK | soluble
10 | MGSDKIHHHHHHMSSSTTPDLLYPSADKVAEPSDNIHGDELRLRERIKDNPTNILSYFQLIQYLETQESYAKVREVYEQFHNTFPFYSPAWTLQLKGELARDEFETVEKILAQCLSGKLENNDLSLWSTYLDYIRRKNNLITGGQEARAVIVKAFQLVMQKCAIFEPKSSSFWNEYLNFLEQWKPFNKWEEQQRIDMLREFYKKMLCVPFDNLEKMWNRYTQWEQEINSLTARKFIGELSAEYMKARSLYQEWLNVTNGLKRASPINLRTANKKNIPQPGTSDSNIQQLQIWLNWIKWERENKLMLSEDMLSQRISYVYKQGIQYMIFSAEMWYDYSMYISENSDRQNILYTALLANPDSPSLTFKLSECYELDNDSESVSNCFDKCTQTLLSQYKKIASDVNSGEDNNTEYEQELLYKQREKLTFVFCVYMNTMKRISGLSAARTVFGKCRKLKRILTHDVYVENAYLEFQNQNDYKTAFKVLELGLKYFQNDGVYINKYLDFLIFLNKDSQIKTLFETSVEKVQDLTQLKEIYKKMISYESKFGNLNNVYSLEKRFFERFPQENLIEVFTSRYQIQNSNLIKKLELTYMYNEEEDSYFSSGNGDGHHGSYNMSSSDRKRLMEETGNNGNFSNKKFKRDSELPTEVLDLLSVIPKRQYFNTNLLDAQKLVNFLNDQVEIPTVESTKSG | not soluble
11 | MHHHHHHSSGRENLYFQGIPTISELKKDRIIPHVFPNDKIDLNVDLFISFKAGKEVNHGNVLDIAGTGSVPRNIKFSEEPPDGYCFVLFMVDPDYPSRLRPDGKEYIHWVVSGIKTKELIKGTQKNCVTILPYVGPSIKKGTGLHRISFIISLIKEEDKDNITGLPHYKGEKYITRVKFNNYESVHNIAQINNMKIVGYNWCQIE | soluble
12 | SDAILNYRPEGSEDYYALLGCDELSSVEQILAEFKIRALECHPDKHPENSKAVETFQKLQKAKEILCNAESRARYDHWRRSQMSMPFEQWEALADSVKTSMHWAVRSKKDLMLEGSGQTFTSSVPNKERSEQRETKKGDPDSNPEKMKQKEPKFPEEGISPQNPDSPGLSDLNCGHLRFRWSGDAPSELLRKFRNYEI | soluble
13 | MLSKGAVIDKLKSYKPCENCNGPISKTVSISDLNLDKRKRNCVCGNSQLDDVMLDVLNLMSEYNELQNTDLKDVTLRDAGTPLVEIGYPLKYLPVVSNDELIVMKDVSKACATEILKIPEVKGVISNNSKNNSFNRVEDSGEVNALIAGDDFRCDIFVLKSIMDCVVICKNQSKVHIEFPRPFNPKIAKIDRLNLKGKVVVDGFCGSGTLGLAALKKGAKKVIFSDINPHALKDVIYNLKLNFSKEVFDRIEIINSDFLNLDIVGDVCFVDLFPHMDKEPFLNKAKTISKQVVLILEHHHHHH | not soluble
14 | MGSDKIHHHHHHMNEVLDEYRRLLSEVDHWFSRCIARSGEHIRCAEGCSECCRGLFDITLLDAALLKEGFDRLDAFTREQVLVKCRKRLAGLLRLWPEFAHPYMLNYRPEEEWELLMPDDDETPCPLLGADGRCLVYGFRPMTCRLHGLPLVDLTGEVLHDEWCTLNYVGGDPLADAGLRGEFTKIFREEVRLFRHFSERLLGQEFRELDTFIPTALLIDFTRFDWHRFAAGFSVTP | not soluble
15 | TDKEEFALYCEAKNDKVRKRLGIKGGFYWTTAKKLSVAISRCITAMDDNDYDEDDFKKPVRVNLPVVDDLPPEGVFDTEFCNRYEKGGKDGITMTFIGPSPSVQDKPASTDNTNINGEAMTEIEESMLLPVSGQELPIRWLAQHGSEKPVTHVSRDELQALHIARAEELPAVTALAISHKTSLLDSL | not soluble
16 | MAPGTKKKSDMAKFTFYKDRLMTFKNFEYDRDPDAKCTSQAVAQAGFYCTGPQSGKCAFCNKELDFDPEDDPWYEHTKRDEPCEFVRIGKLDDSELTINDTVRLSQTAMIMTKLFEHEMMINNLSNHSSSDALFDQLKKVPNTASTTKSNSRRGK | not soluble
17 | MSIVVKKWNELAEVKAELAARDWFFATSGNLSIKVTDDPLTFLVTASGKDKRKQTEEDFLLVDAAGKPAEETNLKPSAETLLHAEIYGRTNAGCVLHVHTVDNNLISELYAQNGEAVFSGQEIIKAFGIWEENAAVRIPIIDNYADIPTLAREFANYIHGDAGAVLIQNHGITVWGRTAFEAKKHLEAWEFLFRWQVKRLLLQRAGLPVG | not soluble
18 | MGSDKIHHHHHHMRHTAVLLISCPDQRGLVAAIADFLLAHRANILHADQHQDAELKLFLMRVEWDLAGFNLDLRDFATAFQPIAERFGMTWRLAESSRKPRMAVFVSKFDHCLADLLYRYQSGELHCELPIILSNHEDTRWLADAYRVPYQHMAVTKESKHETEQIQLAILRDQKIDFIVLARYMQVLSGDFIRHFPNRIINIHHSFLPAFHGAKPYHRAFERGVKLIGATAHYVTETLDDGPIIEQDVARISHRDHIDDLIHKGADLEKVVLSRAVKWHLDNRVLVYANKTVVFD | not soluble
19 | MSLALDGKSLSGFSHVHVGSLYNAEALEKSVEEMQVETSRRGYAFAVVRPRGDRNFDAHTVSIVFAIDEGPRTYIERINIRGNTRTRDYVIRREFDISEGDAYNRSLVDRAERRLKNLDFFKTVKITTEPGSSSDRVILDVDVEDKSTGDFSVSGGYSTTQGALAEVSVSERNLLGRGLYAKASVQYGQYARGYSLSFVEPYLLDYRVALGLDFYQREQLANQYISYNIKTLGFSPRLGFGLREDLTLQLRYSIFRQEIGLPTSLRNCNNNIGGPNYNPSPAFLNSIGQFNPNNPTLGCYSDGEASLPIRQELGGQTLTSMLGYTLTYNTLDNNKNPTDGLLIDFRQDFAGVGGDVKYLKTAIDAKYYQPLVSDIVGLVHLQGGILNNVGAYAGQNGIRMLDNFQMGPNLVRGFAPNGIGPRDINFLSTMDALGGTQYWGASVELQMPFWFLPKEVGLKGAVYADAGSLWGYKGPTSNLATNEFNAPGCMPSTSRSNPGTCAGLQFDDTNVVRTSVGVGLIWQSPFGPLRFDYAVPITKGKYDRVQEFRFGGGTTEGHHHHHH | not soluble
20 | KVWDRAVDFLAANESRVRTETRRIGGADFLVWRWIQPSASCDKILVIPSKVWQGQAFHLDRRNSPPNSLTPCLKIRNMFDPVMEIGDQWHLAIQEAILEKCSDNDGIVHIAVDKNSREGCVYVKCLSPEYAGKAFKALHGSWFDGKLVTVKYLRLDRYHHRFPQALTSNTPLKPSNKHMNSMSHLRLRTGLTNSQGSS | soluble
